Data reported in US11261216B2, “Engineered hepatitis B core polypeptide” (priority 2018, dated 2022).

Test: VLP assembly induced by NaCl, quantified by size-exclusion chromatography
Assay type: physicochemical
Method: Improved VLP purification method. HepBc proteins were expressed using standard cell-free protein synthesis reactions as described above. The improved purification strategy first used Sephadex G25 columns to exchange the samples into a 50 mM Tris, 25 mM Imidazole, 0.1% Tween-20, pH 7.4 buffer solution. Insolubles were removed using centrifugation at 10 k×g for 15 min before loading the soluble fraction onto the Ni-NTA column. After loading, the Ni-NTA column was washed with 4 column volumes (CV) of 50 mM Tris, 25 mM Imidazole, 0.1% Tween-20, pH 7.4 and then eluted with 50 mM Tris, 250 mM Imidazole, 0.1% Tween-20, pH 7.4 (5CV total). […] Assembled VLPs were quantified and purified by applying 200 μL of the samples to 2.2 mL Sepharose 6 Fast Flow size-exclusion chromatographic resin, eluting 24×150 μL fractions. Protein concentration in each fraction was determined by measuring the radioactivity using liquid scintillation counting. […]
VLP purification method. […] Assembled VLPs were quantified and purified by applying 200 μL of the samples to 2.2 mL Sepharose 6 Fast Flow size-exclusion column, applying the assembly buffer, and collecting 24×150 […]. Protein concentration in each fraction was determined by measuring the radioactivity using liquid scintillation counting. […]

Row | Molecule | NaCl concentration (ionic strength) required for VLP assembly
1 | wild-type: Wild-type truncated Hepatitis B core protein HBc149, SEQ ID NO: 1 | 0.5 M
2 | HP spike transplant: HepBc with HP series of amino acid changes in the spike region; HBc(HP) is SEQ ID NO: 3 (protein) MDIDPYKEFGATVELLSFLPSDFFPSVRCLLDTAAALYRDALESPEHCSPHHTALRQAVSCWREVTDFGDWVGNNMQDQAARDLVVNYVNANIGLKIRQLLWFHISCLTFGRETVLEYLVSFGVWICTPPAYRPPNAPILSTLPETTVV | 1.5 M
